Results taken from article PMC3937304, “The Secreted Triose Phosphate Isomerase of Brugia malayi Is Required to Sustain Microfilaria Production In Vivo” (PLoS Pathogens, 2014).

Tested on: O=C(CO)COP(=O)(O)O
Assay: purified protein
Conditions: DHAP to G3P direction, 100 mM TEA-HCl pH 7.6, 1 mM EDTA, 1 mM NAD+, 5 mM disodium hydrogen arsenate, 25 °C, 0.16-10 mM DHAP

Substance | Km
recombinant Bm-TPI (Brugia malayi) | 1800 µM
recombinant Ls-TPI (Litomosoides sigmodontis) | 1933 µM
